In US20260116991A1 (HAINAN SIMCERE ZAIMING PHARMACEUTICAL, published 2026):

Legend:
human GPC3-His protein [1] = molecular target: T1, human GPC3-His protein (human, UniProt P51654 25-559); test: ELISA, coated human GPC3, antibody 100 nM;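 further: antibodies bound to antigen-coated 96-well plates (1 µg/mL), 2 h at 37 °C, detected with HRP-labelled secondary antibody and TMB substrate, absorbance read at 450 nm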
T1 construct: Bought protein; also called human GPC3 protein; not shown: His tag

human GPC3-His protein [2] = molecular target: T1, human GPC3-His protein; test: ELISA, coated human GPC3, antibody 0.01 nM;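 further: Plate-bound antigen coated at 1 µg/mL, antibody incubated 2 h at 37 °C, binding detected by HRP-conjugated secondary antibody with TMB substrate, read as absorbance at 450 nm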
Method: (§1) The specific method is described as follows: The antigen protein was diluted with PBS to a final concentration of 1 μg/mL, and the diluent was added to a 96-well ELISA plate at 50 μL/well. The plate was sealed with a plastic film and incubated at 4° C. overnight, washed twice with PBS the next day, and a blocking solution [PBS+2% (w/w) BSA] was added for blocking at room temperature for 2 h. […] After incubation at 37° C. for 2 h, the plate was washed 3 times with PBS. A horseradish peroxidase (HRP)-labeled secondary antibody (purchased from Merck, Cat. No. AP113P) was added for incubation at 37° C. for 1 h, and the plate was washed 5 times with PBS. A TMB substrate was added at 50 μL/well for incubation at room temperature for 10 min, then a stop solution (1.0M HCl) was added at 50 μL/well. An ELISA plate reader (Multimode Plate Reader, EnSight, purchased from Perkin Elmer) was used to read OD_{450 nm} values, with results as shown in Table 4 to Table 6, FIG. 1A, FIG. 1B, and FIG. 1C.

[3] = molecular target: T2, GPC3 endogenously expressed on HepG2 cells (UniProt P51654 25-554); test: FACS on HepG2 cells;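 further: flow cytometric binding of chimeric antibodies to cells, read as mean fluorescence intensity, EC50 obtained by curve fitting of the MFI data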
T2 construct: whole, on cells
Method: (§2) The desired cells were expanded to a logarithmic growth phase in a T-75 cell culture flask, the medium was removed by pipetting, and the cells were washed twice with a PBS buffer, and digested with trypsin. Then a complete medium was added to stop the digestion, and the cells were blown into a single cell suspension. After counting, the cells were centrifuged, and the cell pellet was resuspended with an FACS buffer (PBS+2% fetal bovine serum) to 2×10⁶ cells/mL. The cell resuspension solution was added to a 96-well FACS reaction plate at 50 μl/well, and a chimeric antibody sample to be tested was added at 50 μl/well for incubation at 4° C. for 1 h. […] After the plate was centrifuged and washed 3 times with a PBS buffer, 100 μl of the resulting solution was assayed and analyzed by FACS (FACS Canto™, purchased from BD Biosciences). Data analysis was performed by software (FlowJo) to obtain the mean fluorescence intensity (MFI) of the cells. Then, analysis was performed by software (GraphPad Prism8), data were fitted, and EC₅₀ values were calculated.

human GPC3-His protein [4] = molecular target: T1, human GPC3-His protein; test: ELISA, coated human GPC3, antibody 10 nM;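 further: plate coated with antigen at 1 µg/mL, antibodies bound 2 h at 37 °C, detected via HRP-conjugated secondary antibody and TMB substrate, absorbance read after acid stop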
Method: as §1

human GPC3-His protein [5] = molecular target: T1, human GPC3-His protein; test: ELISA, coated human GPC3, antibody 1 nM;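 further: antigen coated at 1 µg/mL on 96-well plates, antibody bound for 2 h at 37 °C, detected with HRP-labeled secondary antibody and TMB, absorbance read at 450 nm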
Method: as §1

human GPC3-His protein [6] = molecular target: T1, human GPC3-His protein; test: ELISA, coated human GPC3, antibody 0.001 nM
[7] = molecular target: T3, human GPC3 on CHO-K1-human GPC3 cells (clone CHOK1-hGPC3.2B5) (human, UniProt P51654 25-554); test: FACS on CHOK1-hGPC3.2B5 cells;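 further: flow cytometry binding of chimeric antibodies to the cells, read out as mean fluorescence intensity, with the half-maximal concentration derived by curve fitting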
T3 construct: whole, on cells; Stably transfected CHO-K1 clone 2B5
Method: as §2

human GPC3-His protein [8] = molecular target: T1, human GPC3-His protein; test: ELISA, coated human GPC3, antibody 0.0001 nM
human GPC3-His protein [9] = molecular target: T1, human GPC3-His protein; test: ELISA, coated human GPC3, antibody 0.1 nM;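 further: antigen coated on 96-well plates at 1 µg/mL, antibody bound 2 h at 37 °C, detected with HRP-labeled secondary antibody and TMB substrate, acid-stopped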
Method: as §1

Binder | OD450 nm (human GPC3-His protein [1]) [OD450] | OD450 nm (human GPC3-His protein [2]) [OD450] | EC50 [3] [nM] | Max MFI [3] [MFI] | OD450 nm (human GPC3-His protein [4]) [OD450] | OD450 nm (human GPC3-His protein [5]) [OD450] | OD450 nm (human GPC3-His protein [6]) [OD450] | EC50 [7] [nM] | Max MFI [7] [MFI] | OD450 nm (human GPC3-His protein [8]) [OD450] | OD450 nm (human GPC3-His protein [9]) [OD450]
F1.145.22 human-murine chimeric antibody (antibody, human IgG1, kappa, V domains shown) VH: QVQLQQSGTDLARPGASVKLSCKASGYTFTSFGISWVKQRTGQGLEWIGEIYPRSGSPYYNEKFTGKATLTADKSSSTAYMELRSLTSEDSAVYFCAKDFGSSYVFDYWGQGTALTVSS VL: DIQMTQSPASLSASVGETVTITCRASENIYSYLTWYQQKQGKSPQLLVYNAKTLAEGVPSRFSGSGSGTQFSLKINSLQPEDFGTYYCQHHYGTPPTFGTGTKLDLKR | 2.53 | 0.22 | 0.67 | 2160 | 2.35 | 1.95 | 0.12 | 1.18 | 9700 | 0.09 | 0.94
F1.3.9 human-murine chimeric antibody (antibody, human IgG1, kappa, V domains shown) VH: QVQLQQPGTELVKPGASVKLSCKASGYTFTSYWIHWVKQRPGQGLEWIGNINPPNAGTNYNEKFKSKATLTVDKSSSTAYMQLSSLTSEDSAVYYCARGRWLLHDYWGQGTTLTVSS VL: DIQMTQSPASLSISVGETVTITCRASENIYSNLAWYQQKQGKSPQLLVYGTKNLAEGVPSRFSGSGSGTQYSLKINSLQSEDFGNYYCQHFWGTPYTFGGGTKLEILR | 2.07 | 0.21 | 0.8 | 3810 | 1.95 | 1.66 | 0.11 | 2.78 | 3210 | 0.1 | 0.92
F1.111.11 human-murine chimeric antibody (antibody, human IgG1, kappa, V domains shown) VH: EVQLQQSGPELVKPGASVKISCKASGYTFTDYYMNWVKQSHGKSLEWIGDIYPNNGDTTYNQRFKGKATLTVDKSSSTAYMELRSLASEDSAVYYCACPYNNPFGYWGQGTLVTVSA VL: DVVMTQTPLSLPVSLGDQASISCRSSQSLVHSNGNTYLHWYLQKPGQSPKLLIYKVSNRFSGVPDRFSGSGSGTDFTLKISRVEAEDLGVYFCSQSTHVPWTFGGGTKLEIKR | 2.7 | 0.41 | 1.13 | 1880 | 2.46 | 2.41 | 0.14 | 1.08 | 9230 | 0.1 | 1.61
F1.115.8 human-murine chimeric antibody (antibody, human IgG1, kappa, V domains shown) VH: EVQLQQSGPELVKPGASVKMSCKASGYTFTEYYMHWVKQSHGKSLEWIGYIYPNNGGNGYNQKFKGKATLTVDKSSSTAYMGLRSLTSEDSAVYYCVRGYYSNWYFDVWGTGTTVTVSS VL: DVLMTQTPLSLPVSLGDQASISCRSSQSIVHSNGKTYLEWYLQKPGQSPKLLIYKVSNRFSGVPDRFSGSGSGTDFTLKISRVEAEDLGVYYCFQGSHVPFTFGSGTKLEIKR | 2.01 | 0.2 | 0.18 | 2460 | 1.9 | 1.83 | 0.11 | 0.33 | 9980 | 0.09 | 0.83
F1.120.16 human-murine chimeric antibody (antibody, human IgG1, kappa, V domains shown) VH: EFQLQQSGPELVKPGASVKISCKASGYSFTDYNMNWVKQSNGKSLEWIGLIHPKFSVTSYNRKFKGKATLTVDQSSSTAYMQLNSLTSEDSAVYYCARWAGDYFDYWGQGTTLTVSS VL: DIVLTQSPATLSVTPGDSVSLSCRASQSISNNLHWYQQKSHESPRLLIKYASQSISGIPSRFSGSGSGTDFTLTINSVETEDFGMYFCQQSNSWPQTFGGGTKLEIKR | 1.62 | 0.22 | 0.38 | 2080 | 1.63 | 1.23 | 0.14 | 0.52 | 9730 | 0.11 | 0.56
F1.83.6 human-murine chimeric antibody (antibody, human IgG1, kappa, V domains shown) VH: QVQLQQSGPELVKPGASVKISCKASGYAFSSSWMNWVKQRPGKGLEWIGRIYPGDGDTNYNGRFKGKATLTVDKSSSTAYMQLSSLTSEDSAVYFCARGGVFTMALDHWGQGTTLTVSS VL: DIQMTQSPSSLSASLGGKVTITCKASQDINKYIAWYQHKPGKGPRLLIHYTSTLQPGIPSRFSGSGSGRDYSFSISNLEPEDIATYYCLQYDNLFTFGGGTKLEIKR | 0.76 | 0.17 | 0.87 | 2340 | 1.19 | 0.83 | 0.1 | 1.1 | 10100 | 0.08 | 0.4
F1.136.7 human-murine chimeric antibody (antibody, human IgG1, kappa, V domains shown) VH: EVQLQQSGPVMVKPGPSVKISCQTSGFTFTDYYIHWVKQSHGKSLEWIGLVFPYDGGTNYNQKFKDKATLTLDTSSSTAYMELNSLTSEDSAVYYCARAGGFSYALNYWGQGTSVTVSS VL: DIQMTQSPSSLSASLGGKVTITCKASQDINNYIAWYQHKPGKGPRLLIHFTSTLQPGIPSRFSGSGSGRDYSFSISNLEPEDIATYYCLQYDNLLLTFGAGTKLELKR | 1.19 | 0.14 | 2 | 2240 | 1.4 | 0.63 | 0.1 | 1.41 | 9540 | 0.11 | 0.43
F1.110.24 human-murine chimeric antibody (antibody, human IgG1, kappa, V domains shown) VH: EVKLVESGGGLVQPGGSLKLSCAASGFTFSDFYMYWVRQTPEKRLEWVAFISNGGGSTYYPDTVKGRFTISRDNVKNTLYLQMSRLKSEDTAMYYCARPDTSWFAYWGQGSLVTVSA VL: DIQMTQTTSSLSASLGDRVTISCRASQDIDNYLNWYQQKPDGTVKVLISYTSRLHSGVPSRFSGSGSGTDYSLTISNLEQEDIATYFCQQGNTLPWTFGGGTKLEIKR | 0.62 | 0.13 | 0.83 | 2270 | 1.18 | 0.77 | 0.09 | 0.9 | 9370 | 0.08 | 0.42
F1.92.17 human-murine chimeric antibody (antibody, human IgG1, kappa, V domains shown) VH: EVQLQQSGPELVKPGASVKMSCKASGYTFTDYNMHWVRQSHGKSLEWIGYINPNNGDTIYNQNFKGKATLTVNKSSSTAYMELRSLTSEDSAVYYCSRTITYYYSMDYWGPGTSVTVSS VL: QIVLTQSPALMSASPGEKVTMTCSASSSVSYMYWYQQKPRSSPKPWIYLTSNLASGVPARFSGSGSGTSYSLTISSMEAEDAATYYCQQWSSNPLTFGAGTKLELKR | 0.66 | 0.11 | 2.9 | 2300 | 1.19 | 0.68 | 0.09 | 2.04 | 9600 | 0.08 | 0.25
F1.118.4 human-murine chimeric antibody (antibody, human IgG1, kappa, V domains shown) VH: QVQLQQSGAELAKPGASVKLSCKASGYSFTSYWIHWVKQRPGQGLEWIGYINPSSGYTKYNQKFKDKATLTADKSSSTAYMQLSSLTYEDSAVYYCARFGSSSFYFDYWGQGTTLTVSS VL: DIVLTQSPASLAVSLGQRATISCRASQSVSSSSYSYMHWYQQKPGQPPKLLIKYASNLDSGVPARFSGSGSGTDFTLNIHPVEEEDTATYYCQHSWEIPAFGGGTKLEIKR | 1.53 | 0.19 | 0.33 | 2810 | 1.75 | 1.64 | 0.12 | 0.53 | 9640 | 0.1 | 0.74
